Assay results: US20230143091A1 (SORRISO PHARMACEUTICALS, published 2023)
Numbering of substitutions follows the chain as printed. Names may count otherwise.

T1: IL-7R (as used in the IL-7/IL-7R neutralisation ELISA) (UniProt P16871 21-239, limits assumed)
T1 sequence (looked up): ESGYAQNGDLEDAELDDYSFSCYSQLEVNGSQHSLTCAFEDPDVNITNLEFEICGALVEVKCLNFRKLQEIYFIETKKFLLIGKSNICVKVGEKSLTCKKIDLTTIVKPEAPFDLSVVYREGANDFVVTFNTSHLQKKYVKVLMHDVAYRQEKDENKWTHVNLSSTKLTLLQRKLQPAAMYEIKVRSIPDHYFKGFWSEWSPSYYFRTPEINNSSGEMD

T2: IL-7R on human lymphocytes (hPBMCs) (human, UniProt P16871 21-459)
T2 sequence (looked up): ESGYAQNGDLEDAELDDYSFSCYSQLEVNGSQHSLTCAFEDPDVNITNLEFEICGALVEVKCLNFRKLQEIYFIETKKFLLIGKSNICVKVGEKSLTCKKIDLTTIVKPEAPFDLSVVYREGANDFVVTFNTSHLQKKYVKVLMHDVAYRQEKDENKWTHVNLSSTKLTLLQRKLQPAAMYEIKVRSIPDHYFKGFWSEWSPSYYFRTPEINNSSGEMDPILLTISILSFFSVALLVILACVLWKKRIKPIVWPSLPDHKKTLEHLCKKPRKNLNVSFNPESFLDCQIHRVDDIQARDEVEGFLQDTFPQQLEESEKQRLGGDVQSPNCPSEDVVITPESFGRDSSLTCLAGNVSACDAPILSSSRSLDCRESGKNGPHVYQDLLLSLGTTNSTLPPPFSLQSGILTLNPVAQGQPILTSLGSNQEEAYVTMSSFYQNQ

B1: FU3K bihead (bispecific antibody)
chain: DVQLVESGGGLVQPGGSLKLSCAASGFDFSSHWMYWVRQAPGKELEWLSEINTNGLITHYGDSVKGRFTVSRNNAANKMYLELTRLEPEDTALYYCARNQHGLNKGQGTQVTVSSGGGGSGGGGSKGGGGSGGGGSEVQLVESGGGLVQAGGSLRLSCESSISTFSSDAMGWFRQAPGKELEFLAAIGWSGAVTHYSDSVKGRFTISRDNAKNTVYLQMNSLRAEDTGRYYCAEDYDTDVWQYWGQGTQVTVSS
notes: Produced in S. cerevisiae; also called pre-digestion FU3K; heterobihead
B2: V7R-2E9 (VHH)
VHH: EVQLVESGGGLVQAGGSLRLSCESSISTFSSDAMGWFRQAPGKEREFLAAIGWSGAVTHYSDSVQGRFTISRDNAKNTVYLQMNSLKSEDTGRYYCAEDYDTDVWQYWGQGTQVTVSS
B3: ID-A62U (VHH)
VHH: B2 VHH with E1D, R45L, Q65K, K87R, S88A
notes: Produced in S. cerevisiae; Comprises E1D and R45L mutations relative to ID-A40U
B4: ID-38F (VHH)
VHH: DVQLVESGGGLVQPGGSLKLSCAASGFDFSSHWMYWVRQAPGKELEWLSEINTNGLITHYGDSVKGRFTVSRNNAANKMYLELTRLEPEDTALYYCARNQHGLNKGQGTQVTVSS
B5: FU3K after trypsin digestion (other)
VHH 1: DVQLVESGGGLVQPGGSLKLSCAASGFDFSSHWMYWVRQAPGKELEWLSEINTNGLITHYGDSVKGRFTVSRNNAANKMYLELTRLEPEDTALYYCARNQHGLNKGQGTQVTVSSGGGGSGGGGSK
VHH 2: GGGGSGGGGSEVQLVESGGGLVQAGGSLRLSCESSISTFSSDAMGWFRQAPGKELEFLAAIGWSGAVTHYSDSVKGRFTISRDNAKNTVYLQMNSLRAEDTGRYYCAEDYDTDVWQYWGQGTQVTVSS
notes: A mixture of two separate monomers, not a complex; also called post-digestion FU3K; ID-38F and ID-A62U monomer arms released from FU3K

Tests used:
[1] = molecular target: T1, IL-7R (as used in the IL-7/IL-7R …); test: IL-7/IL-7R neutralisation ELISA; blocked ligand IL-7, bound IL-7 detected with biotinylated anti-hIL-7 and Extravidin-HRP
[2] = molecular target: T2, IL-7R on human lymphocytes (hPBMCs); test: cell-based or functional assay
human TNFα = molecular target: T3, human TNFα (human, UniProt P01375 77-233); test: competition ELISA on plate-coated human TNFα; competitor 2 nM biotinylated adalimumab, detected with ExtrAvidin-HRP
T3 construct: also called TNF-alpha; Tumour necrosis factor-alpha
T3 sequence (P01375 77-233 limits assumed): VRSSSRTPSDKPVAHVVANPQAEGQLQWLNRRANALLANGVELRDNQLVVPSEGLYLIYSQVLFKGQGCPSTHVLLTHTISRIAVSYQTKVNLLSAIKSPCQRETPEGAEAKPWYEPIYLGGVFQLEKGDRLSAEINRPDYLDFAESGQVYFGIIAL
Experimental: ELISA plates were coated with 100 ng/mL human TNFα in 250 μg/mL bovine serum albumin (BSA) in phosphate buffered saline (1×PBS) and blocked with 1% BSA in 1×PBS.

IC50 (read off the curve) [1] | other results | Binder
~0.2 nM |  | B1
 | IL-7 induced pSTAT5 in hPBMCs EC50 nM [2]: 2.86 nM | B2
0.1 to 0.2 nM |  | B3
 | binding result (human TNFα): binds | B4
~0.4 nM |  | B5
